Results taken from the supplement of paper PMC12455559.
± gives the standard deviation of the averaged measurements.

Tests used:
[1] = melting temperature (DSF); higher = more thermostable
In short: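 Candidate enzymes were expressed in E. coli C41(DE3), purified on nickel beads and released by SUMO protease cleavage. For differential scanning fluorimetry, 45 μL enzyme (0 to 0.3 mg/mL) was mixed with 5 μL 5X Sypro Orange in sealed PCR plates on a Bio-Rad CFX96 instrument. Fluorescence was read from 25 °C in steps of 0.3 °C per cycle (ramp 0.3 °C/s) for 250 cycles. The read-out is melting temperature.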

[2] = PET hydrolysis, aromatic products released after 48 h (umol product/mg enzyme); higher = more PET depolymerization activity
In short: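 Candidate enzymes, made tagless by SUMO cleavage and purified on nickel beads, were added at 5 μg (50 μL) to 3.5 mg of either amorphous PET film or crystalline PET powder in 450 μL buffer. The sealed plates stood unshaken for 48 h at 40 or 60 °C. Activity on PET is the aromatic product found in the supernatant per mg enzyme, read at 260 and 280 nm against buffer blanks.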

[3] = purified protein yield per well (BCA); higher = higher soluble expression
In short: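 Candidate enzymes were made in 2 mL autoinduction cultures of E. coli C41(DE3) with 100 µg/mL kanamycin, at 37 °C for 2 h and then 18 °C for 40 h, and purified with Ni-charged magnetic beads and SUMO protease cleavage. The Pierce Rapid Gold BCA kit gave purified protein yield per well. Values lower than 25 ug (0.1 mg/mL) are below the detection threshold.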

[4] = substrate: cryPow, 40 °C, pH 4.5
[5] = substrate: cryPow, 40 °C, pH 5.5
[6] = substrate: cryPow, 40 °C, pH 6.5
[7] = substrate: cryPow, 40 °C, pH 7.5
[8] = substrate: cryPow, 60 °C, pH 4.5
[9] = substrate: cryPow, 60 °C, pH 5.5
[10] = substrate: cryPow, 60 °C, pH 6.5
[11] = substrate: cryPow, 60 °C, pH 7.5

“ADNPYQRGPDPTRTSVTAVNGPFANTSVSVPTGYGFNGGRIYYPTDTSQGTFGAIAISPGYTALFSAELAWMGPWLASHGFVVIGIETNSRNDFDTARGTQLLAALDYLTQQSPVRDRVDPTRLAVAGHSMGGGGALSAATRRSSLKAAVGIAPYSPSSNLANDRVPTMVFAGQADTVVTPSYATGLYNSLPATTESAYLEVAGADHGFMVGRSNPVLVRTMLPFVKMFVDNDARYSQFLCPLLDSSGVVTYRSTCPLLPSTPTTPTATPTNTPTPTASPTVPPTSASQIVGTQSGRCVDVPNASRTNGTRVTLYDCNRQINQTWTYTANKQLQVYGTMCLDAAGTGNGAAVQIYNCHGQTNQQWNVNSNGTISSVQSGRCLDVWSTSNGAQIQLYDCHGQPNQQFRLVSLA [ESM135]” gave a melting temperature [1] of 61.3 C, a PET hydrolysis [2, 4] of 6 and a PET hydrolysis [2, 5] of 15. It also gave a PET hydrolysis [2, 6] of 14, a PET hydrolysis [2, 7] of 5 and a PET hydrolysis [2, 8] of under 3. The PET hydrolysis [2, 9] was under 3, the PET hydrolysis [2, 10] was under 3 and the PET hydrolysis [2, 11] was under 3. For the same sequence, the “purified protein yield per well” value [3] was 109 µg.
For “ADNPYQRGPDPTRTSVTAVNGPFANTSVSVPTGQGFNGGRIYYPTDTSQGTFGAVAISPGYTALFSAELAWMGPWLASHGFVVIGIETNSTNDFDTARGTQLLAALDYLTQRSSVRDRVDPNRLAVSGHSMGGGGALSAAARRSSLKAVVGITPYSPSSNLANVRVPTMVVSGQADTVVTPSYALNLYNSLPSTTESVYLEVAGGDHGFMVGRSNPVLVRTMLPFLKMFVDNDTRYSQFLCPLMDNSGVVTYRSTCPLLPTPTTPPPTTGPTTPPPTTPPTTTPPPSGSTGQIVGTQSNRCIDVPNSSRNNGTRVQLYDCHGQANQTWTYDSSTKQLRVYGDMCLDASGSGNGAAVQIYSCHNQTNQQWNINSNGTISGVQSNRCLDAWSTNNGAQIQLYDCHGQTNQQFRIRA [TEP168]”, the melting temperature [1] was 65.2 C, the PET hydrolysis ([2]; substrate: aFilm, 40 °C, pH 4.5) was under 3 and the PET hydrolysis ([2]; substrate: aFilm, 40 °C, pH 5.5) was under 3. It also gave a PET hydrolysis ([2]; substrate: aFilm, 40 °C, pH 6.5) of under 3, a PET hydrolysis ([2]; substrate: aFilm, 40 °C, pH 7.5) of under 3 and a PET hydrolysis ([2]; substrate: aFilm, 60 °C, pH 4.5) of under 3. For the same sequence, the PET hydrolysis ([2]; substrate: aFilm, 60 °C, pH 5.5) was under 3, the PET hydrolysis ([2]; substrate: aFilm, 60 °C, pH 6.5) was under 3 and the PET hydrolysis ([2]; substrate: aFilm, 60 °C, pH 7.5) was under 3. The PET hydrolysis [2, 4] was 4, the PET hydrolysis [2, 5] was 9 and the PET hydrolysis [2, 6] was 9 ± 1.4. It also gave a PET hydrolysis [2, 7] of 4.5 ± 0.71, a PET hydrolysis [2, 8] of under 3 and a PET hydrolysis [2, 9] of under 3. The PET hydrolysis [2, 10] was under 3, the PET hydrolysis [2, 11] was under 3 and the “purified protein yield per well” value [3] was 213 µg.
“DEIGQAPTASNITGNGSFATTSESISSLVSGFGGGRVYYPTATGRYPVIAISPGFTATWSSLAWIGPRLSSWGFVVVGIETNSIYDQPGSRGNQLLAALNWAVNSSSTAVRSRVDGSRRGVAGHSMGGGGTLEALAADTSGLVKAGVPLAPWNTDKIWSNVSEPVLIVGGQADTIAPVATHSVPFYNTLAGPKTYVELTGASHFFPQTTNATTSRALVSWFKRWLNQDSRFTPYTCGFGGLAVSDFRSNAC [ESM147]” gave a melting temperature [1] of 67.9 C, a PET hydrolysis [2, 4] of 11 and a PET hydrolysis [2, 5] of 29. The PET hydrolysis [2, 6] was 31, the PET hydrolysis [2, 7] was 46 and the PET hydrolysis [2, 8] was under 3. For the same sequence, the PET hydrolysis [2, 9] was 22, the PET hydrolysis [2, 10] was 42 and the PET hydrolysis [2, 11] was 81. For the same sequence, the “purified protein yield per well” value [3] was 75.4 µg.
“ADNPYERGPDPTERSIEAARGPFGVSTERVGSLGVSDFGGATIYHPTDRSQTYGAIAISPGFTAGWTSLSWLGERLASQGFVVIGIDTITRLDQPGSRGRQLLAALDYATTRSNARALIDAQRLAVAGHSMGGGGTLEAAAERPSLKAAIPLAPWNLDKSWAEVRTPTLIIGGESDNIAAVNTHSIPFYNSLSNAREKAYMEIDNGTHFFPNTANTLMAKYMISWMKRYIDDDTRYEQFLCPPPDDRGISEYRHTCPGS [DP088]” showed a melting temperature [1] of 43.9 C, a PET hydrolysis [2, 5] of under 3 and a PET hydrolysis [2, 6] of under 3. For the same sequence, the PET hydrolysis [2, 7] was under 3, the PET hydrolysis ([2]; substrate: cryPow, 40 °C, pH 8.5) was under 3 and the PET hydrolysis [2, 9] was under 3. For the same sequence, the PET hydrolysis [2, 10] was under 3, the PET hydrolysis [2, 11] was under 3 and the PET hydrolysis ([2]; substrate: cryPow, 60 °C, pH 8.5) was under 3. For the same sequence, the “purified protein yield per well” value [3] was 70 µg.
